The values below come from the RNAGym collection of RNA variant scans (doi:10.1073/pnas.2313332121).

The labels stand for the following.
B1: TPR t1 (parent)
chain: GACCAAUCUGCCCUCAGAGCUCGAGAACAUCUUCGGAUGCAGAGGAGGCAGGCUUCGGUGGCGCGAUAGCGCCAACGUCCUCAACCUCCAAUGCAUCCCACCACAUGAUGAUGCCUGAAGAGCCUUGGUUUUUUG

The variants in this data set derive from B1. Nature of the data set: polymerase ribozyme fitness, log enrichment relative to wild type (log ratio); higher = more active; in vitro selection for triplet polymerase activity. The procedure, abridged:
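Each subunit of a heterodimeric triplet polymerase ribozyme was represented by a PCR-built, transcribed mutant library that underwent triplicate single-round in vitro selection with frozen incubation at −7 °C. Extended constructs were recovered by gel excision, streptavidin-bead capture and RT-PCR, and Illumina sequencing of input and output libraries kept genotypes with ≥10 input reads and ≥1 read per output. Fitness is the logarithm of genotype enrichment relative to wild-type enrichment, from inverse-variance-weighted replicate averages, with a logarithm base of 2.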
With GACCAAUCUUCCCUCAGAGCUUGAGAACAUCUUCGGAUGCAGAGGGGGCAGGCGUGGGUGACGCGAUAGCGCCUACGUCCUCAACCUCCAAAGCAUCCCACCACAUGAUGAUGACAGAAGAGCCUUGGUUUUUUG [G10U C22U A46G U54G C56G G61A A74U U92A C114A U116A], the “polymerase ribozyme fitness (log ratio)” value was -6.68.
The same measure for GACCAAUCUUGCCUCAGAGCUCGAGAACAUCUUCAGAUGCAGAGGAGGCAGGCUUCGGUGGCGUGAUAGCGCCAACGUCCUCAACCUCCAAUGCAUCCCACCACAUGAUGAUGCCUGAAGAGACUUGGUUUUUUG [G10U C11G G35A C64U C123A]: -5.01; for GACCAAUCUUCCCUCAGAGCUCGAGAACAUCUUCGGAUGCAGAGGAGGCAGGCUUUGGUGGCGCGAUAGCGCCAACGUCCUCAACCUCCAAUGCAUCCCACCACAUGAUGAUGCCUGAAGAGCCUUGGUUUUUUG [G10U C56U]: 0.114.
On to GACCAAUCUUCCGUCAGAGCUCGAGAACAUCUUCGGAUGCAGAGGAGGCAGGCUUCGGUGGCGCGAUAGCGCUAACGUCCUCAACCUCCAAUGCAUCCCACCACAUGAUGAUGCCUGAAGAUCCUUGGUUUUUUG [G10U C13G C73U G122U], for which the “polymerase ribozyme fitness (log ratio)” value is -0.626.
The same measure for GACCAAUCUUGCCUCAGAGCUCGAGAACAUCUUCGGAUGCAGAGGAGGCAGGCUUCGGUCGCGCGAUAGCGCCAACGUCCUCAACCUCCAAUGCGUCCCACCACAUGAUGAUGCCUGAAGAGCCUUGGUUUUUUG [G10U C11G G60C A95G]: -0.947.
Consider GACCAAUCUUCCCUGAGAGCUCGAGAACAUCUUCGGAUGCAGAGGAGGCAGGCUUCGGUGGCGCGAUAGCGCCAACGUCCUCAACCUCCAAUGCAUCCCACCACAUGAUGAUGCCUGAAGAGCCUUGGUUUUUUG [G10U C15G], for which the “polymerase ribozyme fitness (log ratio)” value is -1.83.
Regarding GACCAAUCUUCCCUCAGAGAUCGAGAACAUCUUCGGAUGCAGAGGAGGUAGGCUUCGGUGGCGCCAUAGCGCCAACGUCCUCAACCUCCAAUGAAUCCCACCACAUGAGGAUGCCUGAAGAGCCUUGGUUUUUUG [G10U C20A C49U G65C C94A U109G], the “polymerase ribozyme fitness (log ratio)” value is -7.47.
For the variant GACCAAUCUUCCCUCAGAGCUCGAGAACAUCUUCGGAUGCAGAGGAGGCAGGCUUAGGUGGCGCGAUAGCGCCGACGUCCUCAACCUCCAAUGCAUCCCACCACAUGAUGAUGCCUGAAGAGCCUUGGUUUCUUG [G10U C56A A74G U132C], the “polymerase ribozyme fitness (log ratio)” value is -1.83.
For GACCAAUCUUCCCUCAGAGCUCGAGAACAUCUUCGGAUGCAGAGGAGGCAGGGUUCGGUGCCGCGAUAGCGCCAACGUCCUCAUCCUCCAAUGCAUCCCACCACAUGAUGAUGCCUGAAGAGCCUUGGUUUUUUG [G10U C53G G61C A84U] the value was -1.21.
The same measure for GACCAAUCUUCCCUCAGAGCUCGAGAACAUCUUCGGAUGCAGAGGAGGUAGGCUUCGGUGGCGCGAUAGCGGCAACGUCCUAAACCUCCAAUGCAUCCCACCACAUGAUGAUGACUGAAGAGCCUUGGUUUUUUG [G10U C49U C72G C82A C114A]: -2.83; for GACCAAUCUUCCUUCAGAGCUCGAGAACAUCUUCGGAUGCAGAGGAGGCAGGCUUCCUUGGCGCGAUAGCGCCAACGUCCUCAACCUUCAAUGCAUCCCACCACAUAAUGAUGCCUGAAGAGUCUUGGUUUUUUG [G10U C13U G57C G58U C88U G107A C123U]: -6.52.
The same measure for GACCAAUCUUCCCUCAGAGCUCGAGAACAUCUUCGGAUGCAGAGGAGGCAGGCUUCGGUGGCGCGAUAGCGCCAACGUCCUCAACCUCCAAUGCAUCCCACCACAUGAUGUUGCCUGAAGAGCCUUGGUUUUUUG [G10U A111U]: -3.44; for GACCAAUCUUCCGUCAGAGCUCGAGAACAUCUUCGGAUGCAGAGGAGGCAGGCUUCGGUGGCGCGAUAGCGCCAACGACCUCAACCUCCAAUGCAUCCCACCAUAUGAUGAUGCCUGAAGAGCCUUGGUUUUUUG [G10U C13G U78A C104U]: 0.299; for GACCAAUCUUCCCUCAGAGCUCGAGAACAUCUUCGGAUGCAGAGGAGGCAGGUUUCGGUGGCGCGAUAGCGCCAACGUCCUCAACCUCCAAUGCAUCCCACCACAUGAUGAUGCCUGAAGAGCCUUGGUUUUUUG [G10U C53U]: 0.0146.
Consider GACCAAUCUUUCCUCAGAGCUCGAGAACAUCUUCGGAUGCAGAGGAGGCAGGCUUCGGUGGCGCGAUAGCUCCAACGUUCUCAACCUCCAAUGCAUCCCACCACAUGAUGAUGCCUGAAGAGCCUUGGUUUUUUG [G10U C11U G71U C79U], for which the “polymerase ribozyme fitness (log ratio)” value is -0.361.
For GACCAAUCUUCCCUCAGAGCUCGAGAACAUCUUCGGAUGCAGAGGAGGCAGGUUUCGGUGGCGCAAUAGCGCCAACGUCCUCAACCUCCAUUGCAUCCCACCAGAUGAUGAUGCCUGAAGUGCCUUGGUUUUUUG [G10U C53U G65A A91U C104G A121U] the value was -7.6; for GACCAAUCUUCCCUCAGAGCUGGAGAACAUCUUCGGAUGCAGAGGAGGCAGGCUUUGGUGGCGCGAUAGCGUCAACGUCCUCAACCUCCGAUGCAUCCCACCACAUGAUGAUGUCUGAAGAGCCUUGGUUUUUUG [G10U C22G C56U C72U A90G C114U], -3.41; for GACCAAUCUUGCCUCAGAGCUCGAGAACAUCUUCGGAUGCAGAGGACGCAGGCUUCGAUGGGGCGAUAGCGCCAACGUCCUCAACCUCCAAUGCAUCCCACCACAUGAUGAUGCCUGAAGAGCCUUGGUUUUUUG [G10U C11G G47C G58A C62G], -3.87.
For GACCAAUCUUCCCUCAGAGCUCGAGAACAUCUUCGGAUGCAGAGGAGGCAGGGUUUGGUGGCGCGAUAGCGCCCAAGUCCUCAACCUCCAAUGCGUCCCACCACAUGAUGAUGCCUGAAGAUCCUUGGUUUUUUG [G10U C53G C56U A74C C76A A95G G122U] the value was -0.515.
For GACCAAUCUUCCCUCAGAGCUCGAGAACAUCUUCGGAUGCAGAGGAGGCAGGUUUCGGUGGCGCGAUAGCGCCAACGUCCUCAACCUCCAUAGCAUUCCACCACAUGAUGAUGCCUGAAGAGCCUUGGUUUUUUG [G10U C53U A91U U92A C97U] the value was -6.09; for GACCAAUCUUCCCUCAGAGCUCGAGAAUAUCUUCGGAUGCAGAGGAGGCAGGUUUCGGUGGCGCGAUAGCGCUAACGUCCUCAACCUCCAAUGCACCCCACCAAAUGAUAAUGCCUGAAGAGCCUUGGUUUUUUG [G10U C28U C53U C73U U96C C104A G110A], 0.843.
